Reference: the nanobody polyreactivity screen of Harvey et al. (2022)

Assay: yeast display, Sf9 membrane polyspecificity reagent, FACS + sequencing; frameworks hold sequencing errors
In short: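 Nanobodies from a synthetic yeast display library (Saccharomyces cerevisiae BJ5465), induced 36–48 hours with galactose, were stained 1 hour at 4 °C with 10% biotinylated, detergent-solubilized Sf9 membrane reagent, enriched on streptavidin microbeads, then FACS-sorted. Anti-HA (expression) and streptavidin (reagent binding) fluorescence set low and high (top ~1%) gates. Polyreactivity labels come from the gate of origin. Genes were colony-PCR amplified, MiSeq 2 × 250 sequenced and filtered by CDR length.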

| Sequence | polyreactivity (PSR sort gate) |
| --- | --- |
| QVQLVESGGGLVQAGGSLRLSCAASGRTFTYYAMGWYRQAPGKQRELVASINQNGGDTYYADSVKGRFTLSRDNAKNTDYLQMNSLKPADTAVYYCAAEAGYYVQTVAVDMGYWGQGTQVTVSS | low polyreactivity |
| QVQLVESGGGLVQAGGSLRLSCAASGRTFVANAMGLYRQAPGKERELVAAISSSGGSTYYADSVKGRFTISRDYAKNTVYLQMNSLKPEDTAVYYCNRVGVYYRLYPYYYWGQGTQVTVSS | high polyreactivity |
| QVQLVESGGGLVQAGGSLRLSCAASGRTFVDNAMGWYRQAPGKKRELVATISSGDSTTYADSVKGRFTISRDNAKNTVYLQMNSLKPEDTAVYYCAAAYGWSWYRYDYWGQGTQVTVSS | high polyreactivity |
| QVQLVESGGGLVQAGGSLRLSCAASGRTFVFNAMGWYRQAPGKERELVAAITISGGSTYYADSVKGRFTISRDNAKNTVYLQMNSLKPEDTAVYYCNADSKIEVFSYIYDYWGQGTQVTVSS | high polyreactivity |
| QVQLVESGGGLVQAGGSLRLSCAASGRTFVFNTMGWYRQAPGKERELVADISRGDSTNYADSVKGRFTISRDNAKNTVYLQMNSLKPEDTAVYYCAAKWRWSGSILYRYGYGYWGQGTQVTVSS | high polyreactivity |
| QVQLVESGGGLVQAGGSLRLSCAASGRTFVFYAMGWYRPAPGKERELVADITWSDGNTYYADSVKGRFTISRDNAKNSVYLQMKSLKPEDTAVYYCAKVRTGQSRSVGYDYWGQGTQVTGSS | low polyreactivity |
| QVQLVESGGGLVQAGGSLRLSCAASGRTFVFYAMGWYRQAPGKERELVAAITSSGGRTYYADSVKGRFTISRDNAKNTVYLQMNSLKPEDTAFYYCAAPYYPYKYDYWGQGTQVTVSS | low polyreactivity |
| QVQLVESGGGLVQAGGSLRLSCAASGRTFVGNAMGWYRQAPGKERELVAAITVNGVRTYYADSVKGRFTSSRDNAKNTVYLQMNSLKPEATAVYYCARDALHYAGSLHRYGYWGQGTQVTVSS | low polyreactivity |
| QVQLVESGGGLVQAGGSLRLSCAASGRTFVGNTMGWYRQAPGKERELVAAISSGGRTYYADSVKGRFTISRDNAKNTVYLQMNSLKPEDTAVYYCAARRRGKVVPTSQFDYWGQGTQVTVSS | high polyreactivity |
| QVQLVESGGGLVQAGGSLRLSCAASGRTFVGYAMGWYRQAPGKERELLAAISKSGGRTYYADSVKGRFTISRDNAKNTVFLQMNSLKPDDTAVYYCNAVVVYYVDAGRYDYWGQGTQVTVSS | high polyreactivity |
| QVQLVESGGGLVQAGGSLRLSCAASGRTFVGYAMGWYRQAPGKERELVAAITSGGGTYYADSVKGRFTISRDNAKNTVYLQMNSLKPEDTAVYYCNRASRRGYYYPYNYWGQGTQVTVSS | high polyreactivity |
| QVQLVESGGGLVQAGGSLRLSCAASGRTFVGYAMGWYRQAPGKERELVAVISGRGGSTYYADSVKGRFTISRDNAKNTVYLQMNSLKPEDTAVYYCAAYVARKWTSGYWGQGTQVTVSS | high polyreactivity |
| QVQLVESGGGLVQAGGSLRLSCAASGRTFVGYVMGWYRQAPGKERELVAAISKIGGRTYYADSVKGRFTISRDNAKNTVYLQMNSLKTEDTAVYYCAAERTKSIKLPRPGSMDYWGQGTQVTVSS | low polyreactivity |
| QVQLVESGGGLVQAGGSLRLSCAASGRTFVIYTMGWYRQAPGKERELVAAITQRGGITYYADSVKGRFTISRDNAKNTVYLQMNSLKPEDTAVYYCNSGRTYRRLGDYWGQGTQVTVSS | high polyreactivity |
| QVQLVESGGGLVQAGGSLRLSCAASGRTFVNYVMGWYRQAPGKEREFVAAISRNGGSTYYADSVKGRFTISRDNAKNTVYLQMNSLKPEDTAVYYCAARVYWRYNYWGQGTQVTVSS | high polyreactivity |
| QVQLVESGGGLVQAGGSLRLSCAASGRTFVPYAMGWYRQAPGKERELVATITSAGSTYYADSVKGRFTISRDNAKNTVYLQMNSLKPEDTAVYYCNARYYSRRWPYDYWGQGTQVTVSS | high polyreactivity |
| QVQLVESGGGLVQAGGSLRLSCAASGRTFVQYAMGWYRQAPGKERELVARITSVRSTNYADSVKGRFTISRDNAKNTVYLQLNSLKPEDTAVFYCAAPTVVYRSYYYWGQGTQVTVSS | high polyreactivity |
